Among the data in patent US20100099609A1 are Kd values, retold here.

The target of assay [1] is Aβ1-17, the 17 first amino acids of Aβ (UniProt P05067). The experiment in a line: concentration-dependent binding of recombinant netrin-1 to the peptide; format not stated.
The next assay deals with Aβ1-40 (UniProt P05067). The assay can be described thus: concentration-dependent binding of recombinant netrin-1 to the Aβ peptide; format not stated.

What is called Kd is the equilibrium constant for the complex coming apart. On to “recombinant netrin-1 (species not stated) (ligand)”, for which the Kd was 30 nM in assay [1] and 22 nM in the assay with Aβ1-40.
